Biological target: GST-QM fusion protein, full-length QM (human) (UniProt P27635)
Assay: pull-down

ratio between the input and the pulled-down amounts: 95%
Substance: normal full-length PS1, in vitro translated and radiolabeled with [35S]methionine (from UniProt P49768 1-467) (natural protein)
